{"source": "patent US20240182928", "about": "“NOVEL CRISPR ENZYMES AND SYSTEMS” (The Broad Institute, Inc., published 2024)", "binders": {"B1": {"name": "crRNA 14 ; ssRNA 10 (rc) (ssRNA ; ssRNA)", "RNA 1": "CCACCCCAAUAUCGAAGGGGACUAAAACUAGAUUGCUGUUCUACCAAGUAAUCCAU", "RNA 2": "CUUUAUGCUUCCGGCGUAGAUUGCUGUUCUACCAAGUAAUCCAUAUUCGAGCUCGAAUUCACUGGCCUAU"}}, "target": "T1, LshC2c2 (Cas13a) wild type (Leptotrichia shahii, UniProt P0DOC6 SEQ:1-1389)", "T1 sequence": "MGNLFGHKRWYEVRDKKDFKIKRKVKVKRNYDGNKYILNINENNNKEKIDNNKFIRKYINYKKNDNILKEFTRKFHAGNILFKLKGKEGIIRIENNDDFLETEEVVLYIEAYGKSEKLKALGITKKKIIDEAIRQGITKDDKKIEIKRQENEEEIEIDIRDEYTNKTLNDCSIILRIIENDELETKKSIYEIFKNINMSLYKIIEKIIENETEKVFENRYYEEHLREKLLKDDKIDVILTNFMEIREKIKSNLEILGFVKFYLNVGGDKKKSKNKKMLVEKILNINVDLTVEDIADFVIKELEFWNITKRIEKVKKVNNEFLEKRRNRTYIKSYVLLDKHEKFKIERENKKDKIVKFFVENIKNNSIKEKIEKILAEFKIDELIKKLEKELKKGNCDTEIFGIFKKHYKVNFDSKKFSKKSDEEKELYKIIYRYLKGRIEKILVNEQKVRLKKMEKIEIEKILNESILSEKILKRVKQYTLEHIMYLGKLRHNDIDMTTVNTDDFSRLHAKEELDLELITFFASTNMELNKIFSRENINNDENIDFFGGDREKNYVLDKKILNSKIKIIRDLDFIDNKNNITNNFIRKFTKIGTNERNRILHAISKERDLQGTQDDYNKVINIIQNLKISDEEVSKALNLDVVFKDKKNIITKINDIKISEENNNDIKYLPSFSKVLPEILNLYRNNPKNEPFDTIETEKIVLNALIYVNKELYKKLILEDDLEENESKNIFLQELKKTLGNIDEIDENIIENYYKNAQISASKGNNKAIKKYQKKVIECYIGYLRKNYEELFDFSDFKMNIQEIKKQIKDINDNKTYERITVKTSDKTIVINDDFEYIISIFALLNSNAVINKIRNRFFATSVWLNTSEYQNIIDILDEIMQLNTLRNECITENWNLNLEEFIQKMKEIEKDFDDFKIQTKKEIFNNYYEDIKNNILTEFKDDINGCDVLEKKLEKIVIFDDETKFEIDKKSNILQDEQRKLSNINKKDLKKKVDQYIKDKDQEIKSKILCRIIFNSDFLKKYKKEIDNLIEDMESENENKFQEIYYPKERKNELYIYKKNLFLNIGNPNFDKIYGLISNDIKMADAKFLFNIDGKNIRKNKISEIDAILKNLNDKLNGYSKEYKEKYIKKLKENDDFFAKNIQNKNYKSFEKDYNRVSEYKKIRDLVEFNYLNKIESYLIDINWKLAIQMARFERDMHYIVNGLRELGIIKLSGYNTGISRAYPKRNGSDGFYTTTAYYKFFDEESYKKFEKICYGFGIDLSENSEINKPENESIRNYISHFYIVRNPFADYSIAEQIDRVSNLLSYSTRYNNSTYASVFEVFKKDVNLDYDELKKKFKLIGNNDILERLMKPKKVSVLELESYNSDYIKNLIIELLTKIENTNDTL", "assay": "EMSA; non-target reverse complement", "conditions": "tags: expressed as 6-His-MBP-TEV fusion, TEV-cleaved; direct repeat stem-loop", "source_text": "FIG. 119D Electrophoretic mobility shift assay (EMSA) evaluating affinity of the wild type LshC2c2-crRNA complex against a targeted (left) and a non-targeted (right) ssRNA substrate. The non-targeted ssRNA substrate is the reverse-complement of the targeted ssRNA. EDTA is supplemented to reaction condition to reduce any cleavage activity. FIG. 119E Electrophoretic mobility shift assay with LshC2c2(R1278A)-crRNA complex against on-target ssRNA and non-targeting complementary ssRNA (same substrate sequences as in D). FIG. 119B discloses SEQ ID NOS: 2090-2091, respectively, in order of appearance.\nTo determine if target binding and cleavage activity of LshC2c2 are likewise separable, electrophoretic mobility shift assays (EMSA) were performed on both the wild-type (FIG. 119D) and R1278A mutant LshC2c2 (FIG. 119E) in complex with crRNA."}
{"binder": "B1", "values": [{"measurement": "binding result", "value": "no binding"}]}
